Data reported in paper PMC12412624, “Engineered Cas12j‐8 is a Versatile Platform for Multiplexed Genome Modulation in Mammalian Cells”.

B1: cxcr4site5 (mixed)
RNA: CUUUCAAGACUAAUAGAUUGCUCCUUACGAGGAGACGGAACUUCCUAUGCAAGGCA
DNA 1: TTGGGAACTTCCTATGCAAGGCA
DNA 2: TGCCTTGCATAGGAAGTTCCCAA
B2: vegfasite4 (mixed)
RNA: CUUUCAAGACUAAUAGAUUGCUCCUUACGAGGAGACUUGUGCUGUAGGAAGCUCAU
DNA 1: TTGTTGTGCTGTAGGAAGCTCAT
DNA 2: ATGAGCTTCCTACAGCACAACAA
B3: alas1site9 (mixed)
RNA: CUUUCAAGACUAAUAGAUUGCUCCUUACGAGGAGACGCAUGACUCCAUCCCGAUCC
DNA 1: TTGGCATGACTCCATCCCGATCC
DNA 2: GGATCGGGATGGAGTCATGCCAA
B4: ccr5site9 (mixed)
RNA: CUUUCAAGACUAAUAGAUUGCUCCUUACGAGGAGACAGAUCUGGUAAAGAUGAUUC
DNA 1: TTGAGATCTGGTAAAGATGATTC
DNA 2: GAATCATCTTTACCAGATCTCAA
B5: ccr5site4 (mixed)
RNA: CUUUCAAGACUAAUAGAUUGCUCCUUACGAGGAGACCUUCUUACUGUCCCCUUCUG
DNA 1: TTCCTTCTTACTGTCCCCTTCTG
DNA 2: CAGAAGGGGACAGTAAGAAGGAA
B6: cxcr4site8 (mixed)
RNA: CUUUCAAGACUAAUAGAUUGCUCCUUACGAGGAGACAGCACAUCAUGGUUGGCCUU
DNA 1: TTCAGCACATCATGGTTGGCCTT
DNA 2: AAGGCCAACCATGATGTGCTGAA
B7: alas1site3 (mixed)
RNA: CUUUCAAGACUAAUAGAUUGCUCCUUACGAGGAGACGUGAUGAGGGAGUCUGAAUA
DNA 1: TTGGTGATGAGGGAGTCTGAATA
DNA 2: TATTCAGACTCCCTCATCACCAA
B8: ccr5site10 (mixed)
RNA: CUUUCAAGACUAAUAGAUUGCUCCUUACGAGGAGACCAUACAGUCAGUAUCAAUUC
DNA 1: TTCCATACAGTCAGTATCAATTC
DNA 2: GAATTGATACTGACTGTATGGAA
B9: tcfsite3 (mixed)
RNA: CUUUCAAGACUAAUAGAUUGCUCCUUACGAGGAGACCUAAACCAAGUCCCAGACAU
DNA 1: TTCCTAAACCAAGTCCCAGACAT
DNA 2: ATGTCTGGGACTTGGTTTAGGAA
B10: apobsite9 (mixed)
RNA: CUUUCAAGACUAAUAGAUUGCUCCUUACGAGGAGACCAAGCAGAAGCCAGAAGUGA
DNA 1: TTGCAAGCAGAAGCCAGAAGTGA
DNA 2: TCACTTCTGGCTTCTGCTTGCAA
B11: tgfbr2site8 (mixed)
RNA: CUUUCAAGACUAAUAGAUUGCUCCUUACGAGGAGACCCAGGUUGAACUCAGCUUCU
DNA 1: TTCCCAGGTTGAACTCAGCTTCT
DNA 2: AGAAGCTGAGTTCAACCTGGGAA
B12: tcfsite8 (mixed)
RNA: CUUUCAAGACUAAUAGAUUGCUCCUUACGAGGAGACCAGGCUCUGACUCAGGGAAG
DNA 1: TTGCAGGCTCTGACTCAGGGAAG
DNA 2: CTTCCCTGAGTCAGAGCCTGCAA
B13: cishsite2 (mixed)
RNA: CUUUCAAGACUAAUAGAUUGCUCCUUACGAGGAGACGCUCACUCUCUGUCUGGGCU
DNA 1: TTGGCTCACTCTCTGTCTGGGCT
DNA 2: AGCCCAGACAGAGAGTGAGCCAA
B14: apobsite10 (mixed)
RNA: CUUUCAAGACUAAUAGAUUGCUCCUUACGAGGAGACGCAGGCGACCAGUGGGCGAG
DNA 1: TTGGCAGGCGACCAGTGGGCGAG
DNA 2: CTCGCCCACTGGTCGCCTGCCAA
B15: cd274site9 (mixed)
RNA: CUUUCAAGACUAAUAGAUUGCUCCUUACGAGGAGACCUCAGGAUCUAAUCUCCUAA
DNA 1: TTCCTCAGGATCTAATCTCCTAA
DNA 2: TTAGGAGATTAGATCCTGAGGAA
B16: pcsk9site5 (mixed)
RNA: CUUUCAAGACUAAUAGAUUGCUCCUUACGAGGAGACUGUCACAGAGUGGGACAUCA
DNA 1: TTGTGTCACAGAGTGGGACATCA
DNA 2: TGATGTCCCACTCTGTGACACAA
B17: tigitsite4 (mixed)
RNA: CUUUCAAGACUAAUAGAUUGCUCCUUACGAGGAGACUAGGACCUCCAGGAAGAUUC
DNA 1: TTCTAGGACCTCCAGGAAGATTC
DNA 2: GAATCTTCCTGGAGGTCCTAGAA
B18: angptl3site12 (mixed)
RNA: CUUUCAAGACUAAUAGAUUGCUCCUUACGAGGAGACCAGUCUUCCAACUCAAUUCG
DNA 1: TTCCAGTCTTCCAACTCAATTCG
DNA 2: CGAATTGAGTTGGAAGACTGGAA
B19: cishsite3 (mixed)
RNA: CUUUCAAGACUAAUAGAUUGCUCCUUACGAGGAGACACUGACAGCGUGAACAGGUA
DNA 1: TTCACTGACAGCGTGAACAGGTA
DNA 2: TACCTGTTCACGCTGTCAGTGAA
B20: ccr5site5 (mixed)
RNA: CUUUCAAGACUAAUAGAUUGCUCCUUACGAGGAGACGAAAUACAAUGUGUCAACUC
DNA 1: TTGGAAATACAATGTGTCAACTC
DNA 2: GAGTTGACACATTGTATTTCCAA
B21: apobsite4 (mixed)
RNA: CUUUCAAGACUAAUAGAUUGCUCCUUACGAGGAGACGUGGCAAAUCCUCCAGAGAU
DNA 1: TTGGTGGCAAATCCTCCAGAGAT
DNA 2: ATCTCTGGAGGATTTGCCACCAA
B22: cd274site6 (mixed)
RNA: CUUUCAAGACUAAUAGAUUGCUCCUUACGAGGAGACGUUGUGGAUCCAGUCACCUC
DNA 1: TTGGTTGTGGATCCAGTCACCTC
DNA 2: GAGGTGACTGGATCCACAACCAA
B23: vegfasite3 (mixed)
RNA: CUUUCAAGACUAAUAGAUUGCUCCUUACGAGGAGACUGCUGUCUUGGGUGCAUUGG
DNA 1: TTCTGCTGTCTTGGGTGCATTGG
DNA 2: CCAATGCACCCAAGACAGCAGAA
B24: sod1site5 (mixed)
RNA: CUUUCAAGACUAAUAGAUUGCUCCUUACGAGGAGACAUUAUUAGGCAUGUUGGAGA
DNA 1: TTCATTATTAGGCATGTTGGAGA
DNA 2: TCTCCAACATGCCTAATAATGAA

How the values were obtained:
[1] = target: T1, Cas12j-8 WT (bacteriophage (metagenome)); test: HEK293T cells; settings: tags: NLS
T1 chain: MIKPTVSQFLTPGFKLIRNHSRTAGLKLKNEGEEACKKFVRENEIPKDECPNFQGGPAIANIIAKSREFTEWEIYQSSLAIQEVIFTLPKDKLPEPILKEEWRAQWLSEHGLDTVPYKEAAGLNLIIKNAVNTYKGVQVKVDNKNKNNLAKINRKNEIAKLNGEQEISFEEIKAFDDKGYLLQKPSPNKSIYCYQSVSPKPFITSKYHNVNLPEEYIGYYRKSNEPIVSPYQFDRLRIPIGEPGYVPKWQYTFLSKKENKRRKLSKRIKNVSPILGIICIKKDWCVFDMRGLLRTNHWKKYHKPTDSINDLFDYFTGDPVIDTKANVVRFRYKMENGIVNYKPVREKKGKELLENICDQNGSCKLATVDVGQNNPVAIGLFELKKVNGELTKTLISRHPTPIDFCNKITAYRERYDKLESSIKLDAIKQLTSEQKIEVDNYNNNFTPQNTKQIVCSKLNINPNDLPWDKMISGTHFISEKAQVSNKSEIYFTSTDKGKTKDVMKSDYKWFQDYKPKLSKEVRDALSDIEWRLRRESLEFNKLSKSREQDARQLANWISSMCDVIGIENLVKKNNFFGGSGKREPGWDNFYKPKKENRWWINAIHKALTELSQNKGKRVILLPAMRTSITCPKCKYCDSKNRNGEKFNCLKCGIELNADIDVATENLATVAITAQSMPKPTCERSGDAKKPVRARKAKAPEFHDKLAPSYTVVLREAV

[2] = target: T2, Cas12j-8 E258R+D313R+D495R+D527R+E547R (bacteriophage (metagenome), E258R;D313R;D495R;D527R;E547R); test: HEK293T cells; settings: tags: NLS
T2 chain: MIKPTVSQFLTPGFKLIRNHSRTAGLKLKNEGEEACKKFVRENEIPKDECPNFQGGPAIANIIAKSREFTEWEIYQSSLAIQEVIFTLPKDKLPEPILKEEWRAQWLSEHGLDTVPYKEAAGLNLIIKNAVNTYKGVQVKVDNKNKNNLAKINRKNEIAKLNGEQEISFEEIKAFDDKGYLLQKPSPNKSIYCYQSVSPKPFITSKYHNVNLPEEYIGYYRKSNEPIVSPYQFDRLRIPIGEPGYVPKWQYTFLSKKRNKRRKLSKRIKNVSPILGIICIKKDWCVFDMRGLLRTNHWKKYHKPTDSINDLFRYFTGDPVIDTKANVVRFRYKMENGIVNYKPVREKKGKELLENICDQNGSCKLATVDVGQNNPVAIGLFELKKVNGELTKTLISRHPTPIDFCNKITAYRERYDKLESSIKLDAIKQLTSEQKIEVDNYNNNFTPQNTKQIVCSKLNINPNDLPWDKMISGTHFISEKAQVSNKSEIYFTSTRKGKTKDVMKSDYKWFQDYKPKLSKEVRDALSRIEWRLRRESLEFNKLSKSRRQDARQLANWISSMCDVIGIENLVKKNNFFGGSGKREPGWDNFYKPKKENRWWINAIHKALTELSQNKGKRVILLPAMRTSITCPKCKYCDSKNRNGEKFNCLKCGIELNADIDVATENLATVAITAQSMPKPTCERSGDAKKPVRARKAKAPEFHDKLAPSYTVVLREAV

| Binder | indel frequency [1] | indel frequency [2] |
| --- | --- | --- |
| B1 | 35.6 % indels | 61.4 % indels |
| B2 | 5.55 % indels | – |
| B3 | 20 % indels | 44 % indels |
| B4 | 45.4 % indels | 72.7 % indels |
| B5 | 28.2 % indels | 68.7 % indels |
| B6 | 10.9 % indels | 36.5 % indels |
| B7 | 10.1 % indels | 34.2 % indels |
| B8 | 4.92 % indels | – |
| B9 | 3.82 % indels | – |
| B10 | 1.17 % indels | 15.6 % indels |
| B11 | 14.8 % indels | 51.6 % indels |
| B12 | 2.92 % indels | – |
| B13 | – | 16.3 % indels |
| B14 | 8.3 % indels | 22.1 % indels |
| B15 | 9.46 % indels | 34.3 % indels |
| B16 | 25.8 % indels | 61.2 % indels |
| B17 | – | 28.3 % indels |
| B18 | – | 22.2 % indels |
| B19 | 2.97 % indels | 43.1 % indels |
| B20 | 12.1 % indels | 54 % indels |
| B21 | 11.9 % indels | 27.8 % indels |
| B22 | 21 % indels | 59.2 % indels |
| B23 | 44.7 % indels | 77.4 % indels |
| B24 | 16.5 % indels | 59.7 % indels |
